Source: patent publication US6858583B2, “Hemoglobin alpha chain peptide fragments useful for inhibiting stem cell proliferation” (Wellstat Therapeutics Corporation, priority 1993, dated 2005)

B1: macrophage inflammatory protein 1-alpha (protein, UniProt P10147 24-92, looked up)
C-C motif chemokine 3: SLAADTPTACCFSYTSRQIPQNFIADYFETSSQCSKPGVIFLTKRSRQVCADPSEEWVQKYVSDLELSA
B2: myoglobin: structurally related protein, inactive in the assay (protein, UniProt P02144 2-154, looked up)
Myoglobin: GLSDGEWQLVLNVWGKVEADIPGHGQEVLIRLFKGHPETLEKFDKFKHLKSEDEMKASEDLKKHGATVLTALGGILKKKGHHEAEIKPLAQSHATKHKIPVKYLEFISECIIQVLQSKHPGDFGADAQGAMNKALELFRKDMASNYKELGFQG

How the values were obtained:
HPP-CFC = experiment: High proliferative potential colony (HPP-CFC) assay after pre-incubation; type: cell-based, mouse; settings: 200 ng/ml, 4 hours pre-incubation, day 14
Procedure: An in vitro assay for assessing murine reconstituting stem cells and early precursors is the high proliferative potential colony ([…]) assay; other related assays, e.g., CFU-A, CFU-GM, CFU-E, and CFU-GEMM, detect progressively restricted progenitor populations (M. Moore, Blood 177:2122-2128, 1991). […] BDF1 mice were treated with 5-fluorouracil (200 mg/kg i.p.) before their bone marrow was assayed for HPP-CFC numbers. Cells were washed by centrifugation and incubated at densities of 10^6 to 5×10^6 /ml in medium with either no added agent (Controls), pINPROL (25 ng/ml) or MIP-1α (200 ng/ml) for 4 hours. After incubation, cells were washed and plated in agar (0.3%) with 30% FCS and combined conditioned medium from 5637 and WEHI-3B cell lines (7.5% of each conditioned medium, as recommended by Sharp et al., 1991). Plating concentration was 5×10^4 cells/ml in 60 mm dishes.

CFU-MIX = CFU-MIX cycling assay in vitro with Ara C; type: cell-based, mouse
Procedure: A similar assay can be performed in vitro, using the cycling status of CFU-MIX instead of CFU-S. The assay is performed as described above for the CFU-S assay except that cytosine arabinoside (Ara C, 30 mg/ml) is used as the cycle-specific toxic agent instead of high dose tritiated thymidine (see B. I. Lord in Haemopoiesis—A Practical Approach, N. G. Testa and G. Molineux (Eds.), IRL Press 1993; Pragnell et al. in Culture of Hematopoietic Cells, R. I. Freshney, I. B. Pragnell and M. G. Freshney (Eds.), Wiley Liss 1994) and a mouse strain with high endogenous cycling rates (Balb/c) is used instead of testosterone-treated BDF1 mice.
To test the activity of these sequences, the CFU-MIX cycling assay was conducted as described in Example 14. As shown in Tables 17-19, these peptides all are active in this assay.

Row | Molecule | % of Control (HPP-CFU) (HPP-CFC) | activity in the CFU-MIX cycling assay (CFU-MIX)
1 | B1 | 101% | 
2 | B2 |  | inactive
